The values below come from the DeepSol protein solubility set.

This data set is described as follows: soluble on expression in E. coli; label from the status in PepcDB or PDB records.
Consider “MSILDTEVTLINGEKASMDQWAGHCLLIVNTASECGYTPQLETLEELYEDYAMRGFFVIGVPCNQFGEEEPGKDAQVARRYEEKFGVRFPLLAKSDVNGPNTIELYKKLKGDGPDIEWNFEKFIVAPSGEVVGRFAPSLDPDDMKIINVLEEYLPI”, for which the “soluble on expression in E. coli” value is on record as “soluble”. As for “MDVEPIFCAEQIVIPHNLADILKAYTKEVIRRQPTDLIAFSAKYFTNLANVASGVSNSSAPAKEQLRQVYTRGGSGGATLTESQVTGLCQQAGIADAVVAKVMEVGAFTPAAVDLSKFVFLCLAMSCEDFNRVCMGVFDVFSDNGSLPAQDLLTLIAHLGPDMDPEVTPAFLDAVAAELPAGGGAVTYMELCEAPSLKPKLGLS”, the entry is “not soluble”; as for “SYLPAENHEYVAAKEGVMNIQTNQVMKVIFQLPDYLLNRYTQGVNVSAKMIFDAFPERSFDLTFQEIDTEADPKTGSYKVTMVMERPPELGILPGMSGNAYLVSQNSGATKIPDSALFEENGKTYVWRVDDQGVVAKADITMNDNGQILQGLADGDQIIISGINVIEPGIKVRAWVKERGL”, “not soluble”; as for “MMKGSRRTGNNTATTLNTPVVIHATQLPQHVSTDEVLQFLESFIDEKENIIDIDTNLSSSISQLKRIQRDFKGLPPAQDFSAAPIQV”, “soluble”. As for “NEPFHLATERNRVAVMSSGGKESLTTFGMLREIGADVFPVFFNESGGHWKTAKIAYDYMKKNYSNVHKVWSNVDRFYSFMNGHMPMLDQKEIRKTADSYPVQ”, the entry is “not soluble”; as for “MSSKYNSLKLVKVKNVGDFVYKVSLNRPSKFNALNMVIWKEIGDCFQLIDEDPECRVVILQGEGKHFCSGLDLSEVTFLNGEEADDSARRGRSILRTIKFMQKQFTYIDECSKPVILAMHGYCLGAALDIATACDVRVATKDAVLSVKEVDIGMAADVGTLNRLPKIVGNHSWIKDISLSARHFSAGEALQFGLLSRVYDTREEMINEVLKMAKLIALKSPVGVQGTKNALNYARDHTVENSLNYVATWNMSQLFTDDIMKASMASLSKQPTPPFSKL”, “not soluble”; as for “MVKSIENVKLTKGLFYNSQKKGNDVILALDIDRLLAPYYEAANLPPKKRSYGGWEEREIRGHSLGHWLSAAAAMYETTGDKALLERIDRAVQELATIQDDVGYVGGVKRAHFDEMFSGEFQVGHFNIAGTWVPWYNLHKLFAGLIDVHQLTGHSLALTVVTKLADWAKKGTDQLTDDQFQRMLICEHGGMNEAMADLYTLTGHKDYLQLAIRFCHWAVLEPLANGIDELEGKHANTQIPKVIGAAKLFEITGDDTYRAIAEFFWRQVTNDRSYIIGGNSNSEHFGPANKETLGVETAETCNTYNMLKLTEHLFRWNRSSQLMDYYEKALYNHILASQDPDSGMKTYFVSLQPGHFKVYSSLEESFWCCFGTGLENPARYTRTIYDRDDRHIYVNLFMASEIHLKDLQVQIRQETNFPETDRTKLTFVKADGVSIKLHIRVPEWVAGPVTARINGKETFSESGADYLTIEREWQKGDEIEVHLPMELRIYEAKDDSHKVGIMYGPIVLAGTFGKDHFPLEHHHHHH”, “not soluble”. The result for “MGSDKIHHHHHHMEVKPFRPLIYRKEIDGMIAPPFDAITPKEEVELKRNKYNITYLTLPKGRDGIPHAKMLLQSWLENGVLIPMKEDVFIVLRQRFYVGDECINRYGLIAKVKVFPESGDVIPHERTFDMYVKERETLMDGISSQLEPIFLVTLKNDLPGYLKAITDGLKEDNTYFGPENVENFVYYINDKRKINKIISLLAEDKSIVADGHHRLQATKNIAARKSGGEREFWSYAMAYITSIHDPGVLVGGVNRVVSNKFRLDMNVLSKYFEINQVERLDETNINLFNGRLYSLKIRIPVYDNLIDASNDFILSKSASMNYTDIENEVIYTHDIYELMSLVNSGSYSFGIILPRWDKMKLIETLLSGRKLPQKSTYFYPKIPSGLAIDTALELRLS” reads “not soluble”; that for “MGKLAADQLTLSYDSTVIIDGVDLKIEEGKITALIGANGCGKSTILKSLARLMAPKSGTVLLEGKDIHRQPSKEVAKKLAILPQSPQAPEGLTVEELCYFGRHPHKKLLSKHTQEDHDMVEWALEATGMIELKDRTLDALSGGQRQRAWISMALAQGTDLLLLDEPTTYLDISHQIEVLELLKKLNRDHGRTVVMVLHDLNQAAQYADYLISVLDGKIYNAGTPEDVFTQPFFREVFGLECCIMRSPIDQKPMCLPTGLCPKLRAK”, “not soluble”. For the sequence “MSVRLPLLLRQLGRQQLPSGPACRLRELCRSGSRSSSSGGGDPEGLRGRRLQDGQTFSSHGPGNPEAPGMDSIVRDVIHNSKEVLSLLQEKNPAFKPVLVVIQAGDDNLMKDMNQNLAKEAGLDITHICLPPDSGEDEIIDEILKINEDPRVHGLTLQISEDSLSNKVLNALKPEKDVDGVTDINLGKLVRGDAPECFVSPLAKAAVELVEKSGITLDGKKVLVVGAHGPLEAALQWLFQRKGFMTMSCPWAPPQLPDKLREADIVVLGSPKPEEIPAVWIPSGTTILNCFHDFLSGKLSGGSPGVPVDKLIAEESVSLLAAALRIQNMVSSGRRWLREQQHRRWRLHCLKLQPLSPVPSDIEISRGQTPKAVDVLAKEIGLLADEIEIYGKSKAKVQLSLLERLKDQTDGKYVLVAGITPTPLGEGKSTVTIGLVQALTAHLKVNSFACLRQPSQGPTFGVKGGAAGGGYAQVIPMEEFNLHLTGDIHAITAANNLLAAAIDTRILHESTQTDKALYNRLVPLVNGVREFSEIQLSRLKKLGIHKTDPSTLTEEEVRKFARLNIDPATITWQRVLDTNDRFLRKITIGQGSTEKGYSRQAQFDIAVASEIMAVLALTDSLTDMKERLGRMVVASDKDGQPVTAEDLGVTSALTVLMKDAIKPNLMQTLEGTPVFVHPGPFANIAHANSSVLTDKIALKFVGEEGFVVTEAGFGADIGMEKFFNIKCRASGLVPNVVVLVATVRALKMHVGGPSVTAGVPLKKEYTEENIQMVADGCCNLQKQIQIAQLFGVPVVVALNVFKTDTRAEIDLVCELAKRAGAFDAVPCYHWSAGGKGSVDLARAVREAANKRSRFQFLYDVQLPIVEKIRVIAQTVYGAKDIELSPEAQSKIDRYTQQGFGNLPICMAKTHLSLSHEPDKKGVPRDFTLPISDVRASIGAGFIYPLVGTMSTMPGLPTRPCFYDIDLDTETEQVKGLF”, the “soluble on expression in E. coli” value is listed as “soluble”. As for “MGKEKVHINIVVIGHVDSGKSTTTGHLIYKCGGIDKRTIEKFEKEAQEMGKGSFKYAWVLDKLKAERERGITIDIALWKFETAKYYITIIDAPGHRDFIKNMITGTSQADCAVLVVACGTGEFEAGISKNGQTREHALLAQTLGVKQLIVACNKMDSTEPPFSEARFTEITNEVSGFIKKIGYNPKAVPFVPISGFNGDNMLEVSSNMPWFKGWAVERKEGNASGKTLLEALDSIIPPQRPTDRPLRLPLQDVYKIGGIGTVPVGRVETGIIKPGMVVTFAPQNVTTEVKSVEMHHESLPEAVPGDNVGFNVKNVSVKDIRRGSVCSDSKQDPAKEARTFHAQVIIMNHPGQISNGYTPVLDCHTAHIACKFNELKEKVDRRTGKKVEDFPKFLKSGDAGIVELIPTKPLCVESFTDYAPLGRFAVRDMRQTVAVGVIKSVEKSDGSSGKVTKSAQKAAPKKK”, the entry is “not soluble”; as for “MSLAFVCLAIGCLYTFLISTTFGCTSSSDTEIKVNPPQDFEIVDPGYLGYMYLQWQPPLSLDHFKECTVEYELKYRNIGSETWKTIITKNLHYKDGFDLNKGIEAKIHTMLPWQCTNGSEVQSSWAETTYWISPQGIPETKVQDMDCVYYNWQYLLCSWKPGIGVLLDTNYNLFYWYEGLDHALQCVDYIKADGQNIGCRFPYLEASDYKDFYICVNGSSENKPIRSSYFTFQLQNIVKPLPPVYLTFTRESSCEIKMKWSIPLGPIPARCFDYEIEIREDDTTLVTATVENETYTLKTTNETRQLCFVVRSKVNIYCSDDGIWSEWSDKQCWEGEDLSKKTEGHHHHHH”, “not soluble”. On to “MSHPVVIKENMTVYDAICTIFLEDVSTLFITNENNDFVGVCSRKDLLRASMIGEDIHTMPISVNMTRMPHVSYLKEQELVIYAANQMIDKEIDSLPIVRPKENDKFEVIGRISKTTITKLFVSLFKE”, for which the “soluble on expression in E. coli” value is “not soluble”. The result for “QAPEQRSIRDGILLLHELGALTDDTQADGSPQLTQIGKDLANIPVDPRMARMLVEANTLGCLHSVMVIVSALTIQDVRERPLEFQAQADQAHARFKDTT” reads “not soluble”.

“MEQLTKCEVFRELKDLKGYGGVSLPEWVCTTFHTSGYDTQAIVQNNDSTEYGLFQINNKIWCKDDQNPHSSNICNISCDKFLDDDLTDDIVCVKKILDKVGINYWLAHKALCSEKLDQWLCEKL”: the “soluble on expression in E. coli” value is reported as “soluble”. As for “MRSLADFEFNNAPLCDGMILASEMIRLDFPTQFVYDELERLVSLAQEEISQLLSQDEQLEKLLALFYGEWGFTDSRGVYRLSDALWLDKVLKKRQGSAVSLGAILLWIANRLDLPLVPVIFPTQLILRIESLEGEMWLINPFNGETLDEHTLEVWLKGNISPVAELFNEDLDEADNAEVIRKLLDTLKSSLMEERQMELALRVSEALLQFNPEDPYEIRDRGLIYAQLECEHVALTDLSYFVEQCPEDPISEMIRAQINTIAHKQIVLHLEHHHHHH”, the entry is “not soluble”; as for “MNVTSGMDQILAQLKATSDLAAGGSKPSATVSTVSQADFGQLLKSAVDQVNTVQQTASQLSREFVGGNQDVELHDVMISLQKANVSFQSMIQVRNRLVTAYQEIMNMQV”, “not soluble”. For the sequence “MDDLSPDSALPPAGSAQDNDAPRQLVVCIDGTSNRFGDQPTNVVRLYRSLSRDPRRVLAYYDQGVGTFGLKETLFEWQKFPSRIAGLAFGWGLKRNVEGAYRFLAEHYRPGDQIFLFGFSRGAYAVRVLAAMLRAVGLIDAHQPHLFDYAWTLLTTRMPPRDEDKRAGTRRRGPDFGLLGRFRKVFGRQVKVHFLGLFDTVTSVGWVYDPLTVPYSSNNEMVDVVRQALAIDECRCFFRQNLWFGEKDRKSDVLQVWFPGMHSDVGGGYAPKDSRLALVAFTWMLGEALEAGLHVDPARSRDQLRARSKQGPDPTAPILPVMTRPWRLAEWLPLLVWDRRSGNRAWRWSRGRPRSRPLEPVGQETRVKLHRSVQRRLDECPDYRPCNLPALERCDLIDDSPLLDGYRLEHHHHHH”, the “soluble on expression in E. coli” value was “not soluble”. Consider “QVQLQQSGPELVKPGALVKISCKASGYTFTNYDIHWVKQRPGQGLEWIGWIYPGDGSTKYNEKFKGKATLTADKSSSTAYMHLSSLTSEKSAVYFCAREWAYWGQGTLVTVSAAKTTAPSVYPLAPGCGDTTGSSVTLGCLVKGYFPEPVTLTWNSGSLSSGVHTFPAVLQSDLYTLSSSVTVTSSTWPSQSITCNVAHPASSTKVDKKIEPRGPTIKPC”, for which the “soluble on expression in E. coli” value is “soluble”.

Turning to “MGSDKIHHHHHHMRPIKNAKKIDYNLIKVFDTVITEGNATRAARKLDVTPAAISQALLRLQNLYGEELFIRTRKGLVPSSKGKSLHQVFRQAIESIESTLCDKTDAQESNELIVLGGDITENYYFPALLDTVLMNRYIIKHYAIKKTGEYSPASMLTHGYADVIMGILEIKNEMIESYLIDNLSDFVCVCGEKSPLVGLEKMSLYNFYAARHAVYHSDMFSSFTADSIDLFKSSTPYAGRREIGYYSDSLFGVIDIVEKSDMVAILPGKIATYFRDVRRYNIKILRMPDEMIFRTLPVYAYLATNSTHYKNVKKLISTFQSTFLFSQEKQPDALVEGSTSLCDLSV”, the “soluble on expression in E. coli” value is “not soluble”. The result for “MGSDFDHLVNSLSDVELLNLFIQSCSQTTINGVPVPRFPPEEIQKQFVGASYEHALYEAYLFYRHIKEYAQNLGVPLNKESKVLDFGCGWGRIIRFLFKDASDQNLLGIDVDPAMITLCNETLGRGIYKTASPHPPVEFISDNSLDIIFAYSVFSHLSEATAENWVKEFSRVLRPGGIFIATTQARYFLDFCQQFQEHPELIQTGWHKTLSQAFPDIHRAISDYENGKFVHSPTGAGDVRNSSFYGETVIPRTYIENHYEKYLKLQDFFDDVNRLPQALFVLQKILEHHHHHH” reads “soluble”.
